Data on 4 molecules can be found in US20230338565A1, “ANTIBODY DRUG CONJUGATE, PREPARATION METHOD THEREFOR AND USE THEREOF” (SICHUAN KELUN-BIOTECH BIOPHARMACEUTICAL CO., LTD., priority 2020, published 2023).

The test system of data set [1] is HEK293T-Claudin 18.2 cells. Nature of the data set: ADCC, NK cell mediated killing assay. The format is cell-based, human. To be noted: NK92MI-CD16a effector cells, LDH detection. The procedure:
2C6.9 belongs to IgG1 subtype and has relative strong antibody-dependent cell-mediated cytotoxicity (ADCC). NK cell mediated killing assay was used to determine the ADCC activity of 2C6.9. The specific procedures were as follows: HEK293T-Claudin 18.2 cells were harvested and centrifuged, followed by adjustment of cell density. 1×10^4/well of cells were plated on a plate and incubated overnight. The medium was removed on the next day. NK92MI-CD16a cells (Huabo Biopharm) were centrifuged, resuspended in MEMA medium and adjusted to 1×10^6/mL, then 50 μL/well cells were added to the corresponding wells. 2C6.9-hz21 and IMAB362 antibodies were diluted with MEMA medium. For HEK293T-Claudin18.2 cells, 10 antibody concentrations were tested, starting from 40 μg/mL with 5-fold dilution. For NUGC-4 cells, 11 antibody concentrations were tested, starting from 2 mg/mL with 5-fold dilution. 50 μL/well of the diluted antibodies were added to the corresponding wells and the reactions were left to stand in incubator at 37° C., 5% CO2 and incubated for 5.5 h. Lysis buffer was then added to the positive control well and incubated for another 0.5 h. 50 μL/well of Lactate Dehydrogenase (LDH) detection agent (DOJINDO LABORATORISE, CK12) were added to the wells and the absorbance at 490 nm were taken every 10 min on a microplate reader (MD, SpectraMax M2). […]

Data set [2] deals with T1, human Claudin 18.2 on cell membrane (Homo sapiens, UniProt P56856).
T1 construct: expressed in transfected cells
Nature of the data set: Affinity to HEK293T-Claudin 18.2 by flow cytometry. To be noted: binding to HEK293T-Claudin 18.2 cells. As to the method: (§1) The affinity of 2C6.9-hz21 to human Claudin 18.2 on cell membrane was detected using HEK293T-Claudin 18.2 cells. The specific procedures were as follows: HEK293T-Claudin 18.2 cells were detached and centrifuged, followed by being washed twice with PBS. And then the cells were resuspended in PBS containing 1% BSA and were plated into a 96-well tip bottom plate at 300000 cells per well in a volume of 50 μl for 20 wells in total. […] of 2C6.9-hz21 and IMAB362 antibody were separately then added with 11 concentrations starting from 1000 nM with three-fold dilution to each well. Human IgG was served as negative control. The reactions were mixed well and incubated for 1 h at 4° C. in the dark, followed by three times of washing with PBS, the FITC-labelled anti-human Fc secondary antibody (Biolegend, 409322) was added and incubated for 0.5 h at 4° C. in the dark. Detection was performed by flow cytometry (Beckman, Cytoflex) after being washed for three times with PBS.

Data set [3] addresses T2, human Claudin 18.2 (Homo sapiens, UniProt P56856).
T2 construct: expressed in transfected cells; cells formaldehyde-fixed for the cell ELISA
Description: Cell ELISA on L929-Claudin 18.2 cells. To be noted: binding to L929-Claudin 18.2 cells, Cellular ELISA. The procedure:
Human Claudin18.2 belongs to the tetraspanin family and has a complex structure. Cell ELISA was thus carried out to maintain the structure of Claudin18.2. The stable cell lines L929-Claudin 18.2 constructed in 6.1 were used for detection. Specifically, L929-Claudin 18.2 adherent cells were detached by 2 mM EDTA treatment. The cells were resuspended and adjusted to 2×10^5/mL and 100 μL of the resuspension was plated into a 96-well plate and incubated overnight at 37° C. The next day, the media was removed, and the plate was washed with PBS once. 100 μL/well 4% formaldehyde was added to the plate. After 30 min of incubation at room temperature, formaldehyde was removed, followed by being washed twice with PBS. Blocking buffer (PBS containing 2% BSA) was then added to the plate at 100 μL/well, and incubated at 37° C. for 2 h. After removal of blocking buffer, 100 μL/well of serially diluted antibodies (starting from 1 μM, with 4-fold dilution, for a total of 11 concentrations) were added to the corresponding wells, which were incubated at 37° C. for 2 h afterwards. The plate was washed with 250 μL PBST for 5 times, and was allowed to stand for 2 min each time. […] The OD450 nm absorbance values were obtained on a plate reader (MD, SpectraMax M2) and the results were subjected to curve fitting by Graphpad Prism. […]
(In general: ELISA stands for enzyme-linked immunosorbent assay.)

The target of data set [4] is T3, human Claudin18.2 (human, UniProt P56856-2 1-261). Nature of the data set: cell-based or functional assay.
In data set [5] the target is T3, human Claudin18.2. Nature of the data set: cell-based or functional assay. This is another data set of the same source.
For data set [6], the target named is T4, human Claudin18.1 (human, UniProt P56856 1-261).
T4 construct: whole, on cells
Description: flow cytometry on HEK293T-human Claudin 18.1 cells, FITC anti-human Fc secondary antibody. The procedure: The specificity of candidate antibodies was detected by FACS. […] After being washed twice with PBS, the cells were resuspended with PBS containing 1% BSA. 300000 cells for each cell line were added with the candidate antibodies at a final concentration of 1000 nM, mixed well, and incubated for 1 h at 4° C., protected from light. Then the cells were washed for three times with PBS and FITC-labeled anti-human Fc secondary antibody (BioLegend, 409322) was added, followed by 0.5 h of incubation at 4° C. in the dark. Detection was performed by flow cytometry (Beckman, Cytoflex) after being washed with PBS for three times.

Data set [7] deals with T3, human Claudin18.2. Description: cell ELISA on formaldehyde-fixed L929-Claudin 18.2 cells, HRP anti-human IgG. The procedure: (§2) Human Claudin18.2 belongs to the tetraspanin family and has a complex structure. Cell ELISA was thus carried out to maintain the structure of Claudin18.2. […] The cells were resuspended and adjusted to 2×10⁵/mL and 100 μL of the resuspension was plated into a 96-well plate and incubated overnight at 37° C. The next day, the media was removed, and the plate was washed with PBS once. 100 μL/well 4% formaldehyde was added to the plate. After 30 min of incubation at room temperature, formaldehyde was removed, followed by being washed twice with PBS. Blocking buffer (PBS containing 2% BSA) was then added to the plate at 100 μL/well, and incubated at 37° C. for 2 h. After removal of blocking buffer, 100 μL/well of serially diluted antibodies (starting from 1 μM, with 4-fold dilution, for a total of 11 concentrations) were added to the corresponding wells, which were incubated at 37° C. for 2 h afterwards. The plate was washed with 250 μL PBST for 5 times, and was allowed to stand for 2 min each time. 100 μL/well of horseradish peroxidase labeled anti-Human IgG secondary antibody (HRP-anti-Human IgG, Jackson ImmunoResearch, 109-035-003) diluted 1:10000 in PBS (containing 2% BSA) was added to the plate. […] The OD450 nm absorbance values were obtained on a plate reader (MD, SpectraMax M2) and the results were subjected to curve fitting by Graphpad Prism.

In data set [8] the target is T3, human Claudin18.2. Nature of the data set: flow cytometry on HEK293T-Claudin 18.2 cells, FITC anti-human Fc secondary antibody. The procedure:
as §1, with “The” for “The affinity of 2C6.9-hz21 to human Claudin 18.2 on cell membrane was detected using HEK293T-Claudin 18.2 cells. The”
Background: In flow cytometry, cells or beads pass a laser one at a time.

Data set [9] addresses T3, human Claudin18.2. Nature of the data set: cell-based or functional assay. The source holds these as a separate data set.
The target of data set [10] is T3, human Claudin18.2. Nature of the data set: cell ELISA on L929-Claudin 18.2 cells. The procedure: as §2

In the case of “IMAB362: control anti-Claudin 18.2 antibody, sequences from patent CN 101312989 B [reference compound]”, the “Max. cytotoxicity (%)” value in data set [1] was 20%. Besides, the “Max MFI” value in data set [2] amounted to 156715.7. Moreover, the “Max signal value (OD450)” value in [3] was found to be 0.53.

B1: humanized antibody 2C6.9-hz21 (antibody, human IgG1, kappa, V domains shown)
VH: QVQLQESGPGLVKPSETLSLTCTVSGFSLTRYGVSWIRQPPGKGLEWIGVIWGEGNTNYNPSLKSRVTISKDSSKSQVSLKLSSVTAADTAVYYCARVNFGNALDYWGQGTLVTVSS
VL: DIVMTQSPDSLAVSLGERATINCKSSQSLLNSGNQKNYLTWYQQKPGQPPKLLIYWASTRDSGVPDRFSGSGSGTDFTLTISSLQAEDVAVYYCQNDFIFPLTFGGGTKVEIKR
notes: Humanized from murine 2C6.9M; Expressed in Expi293F cells and purified on protein A; also called 2C6.9 mAb; humanized monoclonal antibody 2C6.9
A word on the EC50: it is the concentration that produces a half-maximal response. Low values mean a more potent agent, high ones a less potent agent. With B1, the “CDC activity, EC50 value” in data set [4] turned out to be 1.36 µg/mL. Moreover, in [5], the “ADCC activity, EC50 value” amounted to 0.0677 µg/mL. For the same molecule, the binding result in data set [6] is reported as “no binding (tested: 1000 nM)”. In addition, the EC50 is 0.12 nM in data set [7] and 5.77 nM in [8]. The “4-hour internalization ratio on NUGC-4 cells (flow cytometry)” value in data set [9] is 37.8%.

B2: humanized antibody 2C6.9-hz11 (antibody, human IgG1, kappa, V domains shown)
VH: QVQLQESGPGLVKPSETLSLTCTVSGFSLTRYGVSWIRQPPGKGLEWIGVIWGDGNTNYNPSLKSRVTISKDSSKSQVSLKLSSVTAADTAVYYCARVNFGNALDYWGQGTLVTVSS
VL: DIVMTQSPDSLAVSLGERATINCKSSQSLLNSGNQKNYLTWYQQKPGQPPKLLIYWASTRDSGVPDRFSGSGSGTDFTLTISSLQAEDVAVYYCQNDFIFPLTFGGGTKVEIKR
notes: Human IgG1 / kappa
Consider B2, for which the binding result in data set [10] is given as “binds”.

B3: IMAB362 (antibody, V domains shown)
VH: QVQLQQPGAELVRPGASVKLSCKASGYTFTSYWINWVKQRPGQGLEWIGNIYPSDSYTNYNQKFKDKATLTVDKSSSTAYMQLSSPTSEDSAVYYCTRSWRGNSFDYWGQGTTLTVSS
VL: DIVMTQSPSSLTVTAGEKVTMSCKSSQSLLNSGNQKNYLTWYQQKPGQPPKLLIYWASTRESGVPDRFTGSGSGTDFTLTISSVQAEDLAVYYCQNDYSYPFTFGSGTKLEIKR
For the molecule B3, the “CDC activity, EC50 value” in data set [4] turned out to be 3.32 µg/mL. The “ADCC activity, EC50 value” in data set [5] amounted to 0.0577 µg/mL. The EC50 is 0.15 nM in data set [7] and 8.22 nM in [8].
